Results from US20260209362A1 (VIB VZW, published 2026).

T1: biotinylated mouse recombinant IL-12Rβ2 (produced in-house) (mouse, UniProt P97378 24-637, random biotinylated)
T1 construct: Soluble recombinant protein used for panning, ELISA and BLI; also called mIL-12RB2; mIL12RB2
T1 sequence: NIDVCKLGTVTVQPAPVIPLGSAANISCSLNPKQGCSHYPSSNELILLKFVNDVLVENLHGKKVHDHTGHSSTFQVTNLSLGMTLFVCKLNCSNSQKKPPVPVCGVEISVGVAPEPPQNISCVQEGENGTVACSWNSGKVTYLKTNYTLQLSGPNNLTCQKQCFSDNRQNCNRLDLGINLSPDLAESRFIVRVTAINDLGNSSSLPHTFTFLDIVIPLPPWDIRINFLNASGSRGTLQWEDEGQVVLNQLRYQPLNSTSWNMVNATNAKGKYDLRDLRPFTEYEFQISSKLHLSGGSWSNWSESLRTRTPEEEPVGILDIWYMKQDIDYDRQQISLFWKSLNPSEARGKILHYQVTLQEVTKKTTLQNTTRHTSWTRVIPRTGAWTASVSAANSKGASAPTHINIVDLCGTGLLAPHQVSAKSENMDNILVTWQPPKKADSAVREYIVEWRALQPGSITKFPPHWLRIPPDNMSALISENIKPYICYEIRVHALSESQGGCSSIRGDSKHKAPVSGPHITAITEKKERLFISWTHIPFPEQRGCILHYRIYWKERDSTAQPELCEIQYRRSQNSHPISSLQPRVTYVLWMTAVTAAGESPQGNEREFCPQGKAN

T2: biotinylated human recombinant IL-12Rβ2 (produced in-house) (human, UniProt Q99665 24-622, random biotinylated)
T2 construct: Soluble recombinant protein used for panning, ELISA and BLI; also called hIL-12RB2; hIL12RB2
T2 sequence: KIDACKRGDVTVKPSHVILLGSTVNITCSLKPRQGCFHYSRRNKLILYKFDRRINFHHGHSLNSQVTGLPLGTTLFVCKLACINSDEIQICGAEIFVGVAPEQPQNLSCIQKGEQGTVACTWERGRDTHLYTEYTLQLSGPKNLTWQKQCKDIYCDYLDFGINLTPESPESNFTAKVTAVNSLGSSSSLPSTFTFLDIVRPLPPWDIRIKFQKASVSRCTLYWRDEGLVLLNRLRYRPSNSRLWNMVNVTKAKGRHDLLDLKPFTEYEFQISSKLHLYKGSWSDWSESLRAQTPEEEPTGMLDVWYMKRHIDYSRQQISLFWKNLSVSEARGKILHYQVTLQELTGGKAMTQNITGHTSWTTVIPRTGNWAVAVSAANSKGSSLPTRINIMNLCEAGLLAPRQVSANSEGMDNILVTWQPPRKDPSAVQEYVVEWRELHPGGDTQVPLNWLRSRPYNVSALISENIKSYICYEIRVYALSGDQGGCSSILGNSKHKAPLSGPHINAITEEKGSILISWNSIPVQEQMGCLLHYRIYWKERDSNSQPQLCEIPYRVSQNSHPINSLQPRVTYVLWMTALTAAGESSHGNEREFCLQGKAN

T3: human IL-12Rβ2 expressed on cells (human, UniProt Q99665 24-862)
T3 construct: the cell lines are described by plasmid or cDNA number only; also called hIL-12RB2; HEK293T transiently transfected with human IL-12Rβ2
T3 sequence: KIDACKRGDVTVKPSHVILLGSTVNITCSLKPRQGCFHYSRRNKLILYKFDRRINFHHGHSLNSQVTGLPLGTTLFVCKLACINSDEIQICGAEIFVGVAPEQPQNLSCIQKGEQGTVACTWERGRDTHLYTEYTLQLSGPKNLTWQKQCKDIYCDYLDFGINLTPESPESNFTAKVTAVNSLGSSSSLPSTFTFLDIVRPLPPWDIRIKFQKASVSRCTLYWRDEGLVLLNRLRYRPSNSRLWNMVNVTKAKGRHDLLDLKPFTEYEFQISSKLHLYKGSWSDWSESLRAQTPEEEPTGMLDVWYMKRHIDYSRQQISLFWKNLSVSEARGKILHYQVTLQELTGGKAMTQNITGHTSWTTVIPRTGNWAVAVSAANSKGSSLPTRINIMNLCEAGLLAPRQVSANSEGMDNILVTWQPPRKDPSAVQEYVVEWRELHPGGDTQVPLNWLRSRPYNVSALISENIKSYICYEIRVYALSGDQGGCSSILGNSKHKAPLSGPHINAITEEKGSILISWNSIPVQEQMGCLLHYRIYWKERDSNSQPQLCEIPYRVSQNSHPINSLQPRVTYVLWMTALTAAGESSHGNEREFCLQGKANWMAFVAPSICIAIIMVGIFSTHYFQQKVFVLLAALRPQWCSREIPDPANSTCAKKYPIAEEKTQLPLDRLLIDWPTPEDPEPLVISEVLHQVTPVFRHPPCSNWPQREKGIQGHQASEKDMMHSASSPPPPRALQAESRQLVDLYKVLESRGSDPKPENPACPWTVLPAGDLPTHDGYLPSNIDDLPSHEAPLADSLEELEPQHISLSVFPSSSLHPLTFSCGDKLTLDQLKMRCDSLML


Assays:
[1] = target: T1, biotinylated mouse recombinant IL-12Rβ2 …; experiment: ELISA, periplasmic extract on biotinylated mouse IL-12Rβ2
[2] = target: T2, biotinylated human recombinant IL-12Rβ2 …; experiment: BLI (Octet Red), periplasmic extract on biotinylated human IL-12Rβ2 on streptavidin tips
[3] = target: T2, biotinylated human recombinant IL-12Rβ2 …; experiment: ELISA, periplasmic extract on biotinylated human IL-12Rβ2; signal over streptavidin control well
[4] = target: T1, biotinylated mouse recombinant IL-12Rβ2 …; experiment: ELISA, periplasmic extract on biotinylated mouse IL-12Rβ2; signal over streptavidin control well
[5] = target: T3, human IL-12Rβ2 expressed on cells; experiment: flow cytometry, periplasmic extract VHH-HA on HEK293T cells transiently expressing human IL-12Rβ2
[6] = target: T2, biotinylated human recombinant IL-12Rβ2 …; experiment: BLI (Octet Red), periplasmic extract on biotinylated human IL-12Rβ2 on streptavidin tips, 1:1 model

| Binder | binding result [1] | Response [2] | hIL12RB2/control (ELISA) [3] [ratio] | mIL12RB2/control (ELISA) [4] [ratio] | % cells bound [5] [%] | dMFI [5] | koff [6] [s⁻¹] |
| --- | --- | --- | --- | --- | --- | --- | --- |
| anti-IL-12Rβ2 VHH clone 3CAHS124 (clone ID 20400) (VHH, Tested as periplasmic extract; not shown: C-terminal HA tag) VHH: QVQLQESGGGLVQPGGSLRLSCAASGRTINAYIMGWFRQAPGKEREFVAAVSGSGGSTYYADSVKGRFTISRDNAKNTVNLQMDNLRSEDTDVYYCAATYESVYLQNPGQYDYWGQGTQVTVSS | no binding | 0.293 | 5.67 | 1 | 46.3 | 1100 | 0.00324 |
| anti-IL-12Rβ2 VHH clone 3CRHS106 (clone ID 20429) (VHH, Tested as periplasmic extract; not shown: C-terminal HA tag) VHH: QVQLQESGGGLVQPGGSLRLSCKASGFTFSTYAMSWVRQAPGKGLEWVSAVNSGGLSTDYADSVEGRFTISRDDAKNMLFLQMNSLKPEDTARYYCAKYEDCSDYMCHRDRAGYWGQGTQVTVSS | no binding | 0.297 | 10.2 | 1.03 | 43.3 | 1010 | 0.00355 |
| anti-IL-12Rβ2 VHH clone 3CRH25 (clone ID 20378) (VHH, Tested as periplasmic extract; not shown: C-terminal HA tag) VHH: QVQLQESGGGLVQAGDSLRLSCTASGHTFSRYTTIGWFRQAPGKDREFVAAIRWSGDITDYADAVKGRFTISRDNVKNTVYLQMNSLNPEDTAVYYCARGYSEYGVLSRNRGLYAYWGQGTQVTVSS | no binding | 0.523 | 5.16 | 1.04 | 34.8 | 520 | 0.00205 |
| anti-IL-12Rβ2 VHH clone 2CRH82 (clone ID 20372) (VHH, Tested as periplasmic extract; not shown: C-terminal HA tag) VHH: QVQLQESGGGLVQAGGSLRLSCAASARTESMYAMAWFRQAPGKEREIVAGIIQSGGTTYISDYMKGRFSIDRGNAENTVYLQMDSLKPEDTAVYSCAAKVSSGTPSDIQISQSRWYDHWGQGTQVTVSS | no binding | 0.426 | 16.1 | 1.77 | 40.1 | 744 | 0.00274 |
| anti-IL-12Rβ2 VHH clone 3CRHS128 (clone ID 20432) (VHH, Tested as periplasmic extract; not shown: C-terminal HA tag) VHH: QVQLQESGGGLVQPGGSLRLSCAASGFTFSTSGMHWFRQAPGKGLEWVSSIGATVDNSYYASSVKGRFTISRDNAKNTLYLLMNSLKSEDTAVYYCSKDPTGSSRGQGTQVTVSS | no binding | 0.294 | 3.65 | 0.98 | 50.5 | 1380 | 0.00274 |
| anti-IL-12Rβ2 VHH clone 3CRHS54 (clone ID 20422) (VHH, Tested as periplasmic extract (P.E.) from the pMECS vector; not shown: C-terminal HA tag) VHH: QVQLQESGGGLVQPGGSLRLSCTASGSIVSIYNMDWYRQAPGNEREWVASITSSGDPYYDGSAKGRFTISRDNAKMTVYLQMNSLEPEDTAVYFCKVPTEKGNYWGQGTQVTVSS | no binding | 0.203 | 7.85 | 1.25 | 41.5 | 870 | 0.00272 |
| anti-IL-12Rβ2 VHH clone 3CRHS9 (clone ID 20415) (VHH, Tested as periplasmic extract; also called 3CRMS9; not shown: C-terminal HA tag) VHH: QVQLQESGGGLVQPGGSLRLSCTASGSIVSIYNMDWYRQAPGNEREWVASITSSGDPYYDGSAKGRFTISRDNAKMTVYLQMNSLKPEDTAVYYCKVPTEKGNYWGQGTQVTVSS | no binding | 0.222 | 5.08 | 1.09 | 42.1 | 941 | 0.0034 |

Continued, values first:

| binding result [1] | Response [2] | hIL12RB2/control (ELISA) [3] [ratio] | mIL12RB2/control (ELISA) [4] [ratio] | % cells bound [5] [%] | dMFI [5] | koff [6] [s⁻¹] | Binder |
| --- | --- | --- | --- | --- | --- | --- | --- |
| no binding | 0.327 | – | – | 46 | 1140 | 0.0043 | anti-IL-12Rβ2 VHH clone 3CRHS51 (clone ID 20421) (VHH, Tested as periplasmic extract; also called 3CRHSS1; not shown: C-terminal HA tag) VHH: QVQLQESGGGLVQPGGSLRLSCAASGFTFSTYAMSWVRQAPGKGLEWVSAVNSGGLSTDYADSVEGRFTISRDDAKNMLFLQMNRLKPEDTARYYCAKYEDCSDYVCDRAGYWGQGTQVTVSS |
| no binding | 0.491 | 8.64 | 0.81 | 39.5 | 735 | 0.00337 | anti-IL-12Rβ2 VHH clone 3CRH5 (clone ID 20373) (VHH, Tested as periplasmic extract; also called 3CRHS; not shown: C-terminal HA tag) VHH: QVQLQESGGGLVQAGGSLVLSCAASGSAALIFLMSWYRQAPGKQRELVAEVSRGGSTTYADSVEGRFTISRDNAKNIVDLQMNSLKPEDTAVYYCKADQNYGDSLRSSWGQGTQVTVSS |
| no binding | 0.323 | 3.54 | 1.02 | 44.7 | 994 | 0.00267 | anti-IL-12Rβ2 VHH clone 3CAHS102 (clone ID 20399) (VHH, Tested as periplasmic extract; not shown: C-terminal HA tag) VHH: QVQLQESGGGLVQPGGSLRLSCAASGSILRINLMGWYRQVPGKQRELVAEMSTGGSTTYVDSVEGRFTISRDNAKNTVYLQMNSLKPEDTAVYYCNAKAWQLGRLENDDWGQGTQVTVSS |
| no binding | 0.352 | 4.98 | 1.07 | 40.9 | 812 | 0.00324 | anti-IL-12Rβ2 VHH clone 3CAHS142 (clone ID 20401) (VHH, Tested as periplasmic extract; not shown: C-terminal HA tag) VHH: QVQLQESGGGLVQAGESLTLSCIASGVIKDYAMGWFRQAPGKEREFVAAISWSGVSIYYADSVKGRFTISRDNAKNTVYLQMNSLEPEDTAVYYCAGTEGAYTVAGGSTFGYDMDYWGKGTQVTVSS |
| no binding | 0.339 | 3.58 | 0.93 | 43.7 | 1050 | 0.00302 | anti-IL-12Rβ2 VHH clone 3CRHS163 (clone ID 20438) (VHH, Tested as periplasmic extract; also called 3CANS142; not shown: C-terminal HA tag) VHH: QVQLQESGGGLVQPGGSLRLSCTASGFAFSTYWMYWIRQSPEKGFEWVSVVNTGGDITYYADSVKGRFTISRDNAKNTLYLQMNSLKPEDTALYYCARDRTTMSYTRTYYRGGQGTQVTVSS |
